# How the values were obtained:
# [1] = molecular target: ΔN28-CofB (enterotoxigenic Escherichia coli (ETEC)); experiment: ITC, peptide titrated into ΔN28-CofB
# [2] = molecular target: ΔN28-CofB (enterotoxigenic Escherichia coli (ETEC)); experiment: ITC
# [3] = molecular target: ΔN28-CofB (enterotoxigenic Escherichia coli (ETEC)); experiment: ITC, CofJ titrated into ΔN28-CofB, 25° C.
Substance,Kd [1] [nM],fold stronger binding affinity than CofJ to ΔN28-CofB [2] [fold],Kd [3] [nM]
CofJ^1-24 peptide,4000,,
CofJ^1-24-GCN4 inhibitory peptide (designed binder),40,5,
CofJ^4-16 peptide,4000,,
CofJ^4-16-GCN4 inhibitory peptide (designed binder),80,2.5,
secretory protein CofJ,,,200

# From US20190284246A1
